Laboratory results from US20220040297A1 (Chugai, published 2022).

Target: T1, CD3ε homodimer protein (human, UniProt P07766 23-126, limits assumed, sulfo-tag or biotin label in some ECL assays)
T1 construct: also called human CD3ε homodimer protein; CD3 (CD3ε)
Assay: SPR, CD3ε homodimer on chip;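 also: biacore SPR with antibody variants flowed as analyte over amine-coupled CD3ε homodimer on a CM chip, bound amount of each single-residue H chain variant over that of parent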

T1 sequence (P07766 23-126 limits assumed): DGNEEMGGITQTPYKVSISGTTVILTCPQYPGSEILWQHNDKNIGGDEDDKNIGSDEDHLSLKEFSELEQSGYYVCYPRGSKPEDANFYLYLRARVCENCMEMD

Row | Binder | ratio of amounts bound vs CE115HA000
1 | CE115HA000 Q50L (antibody, name in Kabat numbering, V domains shown) VH: QVQLVESGGGVVQPGRSLRLSCAASGFTFSNAWMHWVRQAPGKGLEWVALIKAKSNNYATYYAESVKGRFTISRDDSKNSLYLQMNSLKTEDTAVYYCRYVHYGAYYGVDAWGQGTTVTVSS VL: DIVMTQSPLSLPVTPGEPASISCRSSQSLVHSNRNTYLHWYQQKPGQAPRLLIYKVSNRFSGVPDRFSGSGSGTDFTLKISRVEAEDVGVYYCGQGTQVPYTFGQGTKLEIK | 0.23
2 | CE115HA000 S30G (antibody, name in Kabat numbering, V domains shown) VH: QVQLVESGGGVVQPGRSLRLSCAASGFTFGNAWMHWVRQAPGKGLEWVAQIKAKSNNYATYYAESVKGRFTISRDDSKNSLYLQMNSLKTEDTAVYYCRYVHYGAYYGVDAWGQGTTVTVSS VL: DIVMTQSPLSLPVTPGEPASISCRSSQSLVHSNRNTYLHWYQQKPGQAPRLLIYKVSNRFSGVPDRFSGSGSGTDFTLKISRVEAEDVGVYYCGQGTQVPYTFGQGTKLEIK | 1.01
3 | CE115HA000 S30D (antibody, name in Kabat numbering, V domains shown) VH: QVQLVESGGGVVQPGRSLRLSCAASGFTFDNAWMHWVRQAPGKGLEWVAQIKAKSNNYATYYAESVKGRFTISRDDSKNSLYLQMNSLKTEDTAVYYCRYVHYGAYYGVDAWGQGTTVTVSS VL: DIVMTQSPLSLPVTPGEPASISCRSSQSLVHSNRNTYLHWYQQKPGQAPRLLIYKVSNRFSGVPDRFSGSGSGTDFTLKISRVEAEDVGVYYCGQGTQVPYTFGQGTKLEIK | 0.86
4 | CE115HA000 R19T (antibody, name in Kabat numbering, V domains shown) VH: QVQLVESGGGVVQPGRSLTLSCAASGFTFSNAWMHWVRQAPGKGLEWVAQIKAKSNNYATYYAESVKGRFTISRDDSKNSLYLQMNSLKTEDTAVYYCRYVHYGAYYGVDAWGQGTTVTVSS VL: DIVMTQSPLSLPVTPGEPASISCRSSQSLVHSNRNTYLHWYQQKPGQAPRLLIYKVSNRFSGVPDRFSGSGSGTDFTLKISRVEAEDVGVYYCGQGTQVPYTFGQGTKLEIK | 0.8
5 | CE115HA000 R16Q (antibody, name in Kabat numbering, V domains shown) VH: QVQLVESGGGVVQPGQSLRLSCAASGFTFSNAWMHWVRQAPGKGLEWVAQIKAKSNNYATYYAESVKGRFTISRDDSKNSLYLQMNSLKTEDTAVYYCRYVHYGAYYGVDAWGQGTTVTVSS VL: DIVMTQSPLSLPVTPGEPASISCRSSQSLVHSNRNTYLHWYQQKPGQAPRLLIYKVSNRFSGVPDRFSGSGSGTDFTLKISRVEAEDVGVYYCGQGTQVPYTFGQGTKLEIK | 0.9
6 | CE115HA000 R16E (antibody, name in Kabat numbering, V domains shown) VH: QVQLVESGGGVVQPGESLRLSCAASGFTFSNAWMHWVRQAPGKGLEWVAQIKAKSNNYATYYAESVKGRFTISRDDSKNSLYLQMNSLKTEDTAVYYCRYVHYGAYYGVDAWGQGTTVTVSS VL: DIVMTQSPLSLPVTPGEPASISCRSSQSLVHSNRNTYLHWYQQKPGQAPRLLIYKVSNRFSGVPDRFSGSGSGTDFTLKISRVEAEDVGVYYCGQGTQVPYTFGQGTKLEIK | 0.88
7 | CE115HA000 Q50S (antibody, name in Kabat numbering, V domains shown) VH: QVQLVESGGGVVQPGRSLRLSCAASGFTFSNAWMHWVRQAPGKGLEWVASIKAKSNNYATYYAESVKGRFTISRDDSKNSLYLQMNSLKTEDTAVYYCRYVHYGAYYGVDAWGQGTTVTVSS VL: DIVMTQSPLSLPVTPGEPASISCRSSQSLVHSNRNTYLHWYQQKPGQAPRLLIYKVSNRFSGVPDRFSGSGSGTDFTLKISRVEAEDVGVYYCGQGTQVPYTFGQGTKLEIK | 0.24
8 | CE115HA000 Q105E (antibody, name in Kabat numbering, V domains shown) VH: QVQLVESGGGVVQPGRSLRLSCAASGFTFSNAWMHWVRQAPGKGLEWVAQIKAKSNNYATYYAESVKGRFTISRDDSKNSLYLQMNSLKTEDTAVYYCRYVHYGAYYGVDAWGEGTTVTVSS VL: DIVMTQSPLSLPVTPGEPASISCRSSQSLVHSNRNTYLHWYQQKPGQAPRLLIYKVSNRFSGVPDRFSGSGSGTDFTLKISRVEAEDVGVYYCGQGTQVPYTFGQGTKLEIK | 0.94
9 | CE115HA000 Q50Y (antibody, name in Kabat numbering, V domains shown) VH: QVQLVESGGGVVQPGRSLRLSCAASGFTFSNAWMHWVRQAPGKGLEWVAYIKAKSNNYATYYAESVKGRFTISRDDSKNSLYLQMNSLKTEDTAVYYCRYVHYGAYYGVDAWGQGTTVTVSS VL: DIVMTQSPLSLPVTPGEPASISCRSSQSLVHSNRNTYLHWYQQKPGQAPRLLIYKVSNRFSGVPDRFSGSGSGTDFTLKISRVEAEDVGVYYCGQGTQVPYTFGQGTKLEIK | 0.25

Further lines, results first:

Row | ratio of amounts bound vs CE115HA000 | Binder
10 | 0.93 | CE115HA000 S52cV (antibody, name in Kabat numbering, V domains shown) VH: QVQLVESGGGVVQPGRSLRLSCAASGFTFSNAWMHWVRQAPGKGLEWVAQIKAKVNNYATYYAESVKGRFTISRDDSKNSLYLQMNSLKTEDTAVYYCRYVHYGAYYGVDAWGQGTTVTVSS VL: DIVMTQSPLSLPVTPGEPASISCRSSQSLVHSNRNTYLHWYQQKPGQAPRLLIYKVSNRFSGVPDRFSGSGSGTDFTLKISRVEAEDVGVYYCGQGTQVPYTFGQGTKLEIK
11 | 1 | CE115HA000 S62P (antibody, name in Kabat numbering, V domains shown) VH: QVQLVESGGGVVQPGRSLRLSCAASGFTFSNAWMHWVRQAPGKGLEWVAQIKAKSNNYATYYAEPVKGRFTISRDDSKNSLYLQMNSLKTEDTAVYYCRYVHYGAYYGVDAWGQGTTVTVSS VL: DIVMTQSPLSLPVTPGEPASISCRSSQSLVHSNRNTYLHWYQQKPGQAPRLLIYKVSNRFSGVPDRFSGSGSGTDFTLKISRVEAEDVGVYYCGQGTQVPYTFGQGTKLEIK
12 | 1.13 | CE115HA000 S52cF (antibody, name in Kabat numbering, V domains shown) VH: QVQLVESGGGVVQPGRSLRLSCAASGFTFSNAWMHWVRQAPGKGLEWVAQIKAKFNNYATYYAESVKGRFTISRDDSKNSLYLQMNSLKTEDTAVYYCRYVHYGAYYGVDAWGQGTTVTVSS VL: DIVMTQSPLSLPVTPGEPASISCRSSQSLVHSNRNTYLHWYQQKPGQAPRLLIYKVSNRFSGVPDRFSGSGSGTDFTLKISRVEAEDVGVYYCGQGTQVPYTFGQGTKLEIK
13 | 1.19 | CE115HA000 S52cK (antibody, name in Kabat numbering, V domains shown) VH: QVQLVESGGGVVQPGRSLRLSCAASGFTFSNAWMHWVRQAPGKGLEWVAQIKAKKNNYATYYAESVKGRFTISRDDSKNSLYLQMNSLKTEDTAVYYCRYVHYGAYYGVDAWGQGTTVTVSS VL: DIVMTQSPLSLPVTPGEPASISCRSSQSLVHSNRNTYLHWYQQKPGQAPRLLIYKVSNRFSGVPDRFSGSGSGTDFTLKISRVEAEDVGVYYCGQGTQVPYTFGQGTKLEIK
14 | 0.92 | CE115HA000 S62D (antibody, name in Kabat numbering, V domains shown) VH: QVQLVESGGGVVQPGRSLRLSCAASGFTFSNAWMHWVRQAPGKGLEWVAQIKAKSNNYATYYAEDVKGRFTISRDDSKNSLYLQMNSLKTEDTAVYYCRYVHYGAYYGVDAWGQGTTVTVSS VL: DIVMTQSPLSLPVTPGEPASISCRSSQSLVHSNRNTYLHWYQQKPGQAPRLLIYKVSNRFSGVPDRFSGSGSGTDFTLKISRVEAEDVGVYYCGQGTQVPYTFGQGTKLEIK
15 | 0.6 | CE115HA000 S52cD (antibody, name in Kabat numbering, V domains shown) VH: QVQLVESGGGVVQPGRSLRLSCAASGFTFSNAWMHWVRQAPGKGLEWVAQIKAKDNNYATYYAESVKGRFTISRDDSKNSLYLQMNSLKTEDTAVYYCRYVHYGAYYGVDAWGQGTTVTVSS VL: DIVMTQSPLSLPVTPGEPASISCRSSQSLVHSNRNTYLHWYQQKPGQAPRLLIYKVSNRFSGVPDRFSGSGSGTDFTLKISRVEAEDVGVYYCGQGTQVPYTFGQGTKLEIK
16 | 1.19 | CE115HA000 S62K (antibody, name in Kabat numbering, V domains shown) VH: QVQLVESGGGVVQPGRSLRLSCAASGFTFSNAWMHWVRQAPGKGLEWVAQIKAKSNNYATYYAEKVKGRFTISRDDSKNSLYLQMNSLKTEDTAVYYCRYVHYGAYYGVDAWGQGTTVTVSS VL: DIVMTQSPLSLPVTPGEPASISCRSSQSLVHSNRNTYLHWYQQKPGQAPRLLIYKVSNRFSGVPDRFSGSGSGTDFTLKISRVEAEDVGVYYCGQGTQVPYTFGQGTKLEIK
17 | 1.04 | CE115HA000 S52cQ (antibody, name in Kabat numbering, V domains shown) VH: QVQLVESGGGVVQPGRSLRLSCAASGFTFSNAWMHWVRQAPGKGLEWVAQIKAKQNNYATYYAESVKGRFTISRDDSKNSLYLQMNSLKTEDTAVYYCRYVHYGAYYGVDAWGQGTTVTVSS VL: DIVMTQSPLSLPVTPGEPASISCRSSQSLVHSNRNTYLHWYQQKPGQAPRLLIYKVSNRFSGVPDRFSGSGSGTDFTLKISRVEAEDVGVYYCGQGTQVPYTFGQGTKLEIK
18 | 0.97 | CE115HA000 S52cG (antibody, name in Kabat numbering, V domains shown) VH: QVQLVESGGGVVQPGRSLRLSCAASGFTFSNAWMHWVRQAPGKGLEWVAQIKAKGNNYATYYAESVKGRFTISRDDSKNSLYLQMNSLKTEDTAVYYCRYVHYGAYYGVDAWGQGTTVTVSS VL: DIVMTQSPLSLPVTPGEPASISCRSSQSLVHSNRNTYLHWYQQKPGQAPRLLIYKVSNRFSGVPDRFSGSGSGTDFTLKISRVEAEDVGVYYCGQGTQVPYTFGQGTKLEIK
19 | 0.98 | CE115HA000 S52cL (antibody, name in Kabat numbering, V domains shown) VH: QVQLVESGGGVVQPGRSLRLSCAASGFTFSNAWMHWVRQAPGKGLEWVAQIKAKLNNYATYYAESVKGRFTISRDDSKNSLYLQMNSLKTEDTAVYYCRYVHYGAYYGVDAWGQGTTVTVSS VL: DIVMTQSPLSLPVTPGEPASISCRSSQSLVHSNRNTYLHWYQQKPGQAPRLLIYKVSNRFSGVPDRFSGSGSGTDFTLKISRVEAEDVGVYYCGQGTQVPYTFGQGTKLEIK
20 | 0.92 | CE115HA000 S62E (antibody, name in Kabat numbering, V domains shown) VH: QVQLVESGGGVVQPGRSLRLSCAASGFTFSNAWMHWVRQAPGKGLEWVAQIKAKSNNYATYYAEEVKGRFTISRDDSKNSLYLQMNSLKTEDTAVYYCRYVHYGAYYGVDAWGQGTTVTVSS VL: DIVMTQSPLSLPVTPGEPASISCRSSQSLVHSNRNTYLHWYQQKPGQAPRLLIYKVSNRFSGVPDRFSGSGSGTDFTLKISRVEAEDVGVYYCGQGTQVPYTFGQGTKLEIK
21 | 0.96 | CE115HA000 S52cA (antibody, name in Kabat numbering, V domains shown) VH: QVQLVESGGGVVQPGRSLRLSCAASGFTFSNAWMHWVRQAPGKGLEWVAQIKAKANNYATYYAESVKGRFTISRDDSKNSLYLQMNSLKTEDTAVYYCRYVHYGAYYGVDAWGQGTTVTVSS VL: DIVMTQSPLSLPVTPGEPASISCRSSQSLVHSNRNTYLHWYQQKPGQAPRLLIYKVSNRFSGVPDRFSGSGSGTDFTLKISRVEAEDVGVYYCGQGTQVPYTFGQGTKLEIK
